PMC12396273

Assays:
Experiment in all cases: fluorescence polarisation
[1] = biological target: FITC-labelled HRK-BH3 peptide
[2] = biological target: Human BCL-2 removing the C-terminal 32 residues, C-terminal 6×His-tag (human) (UniProt P10415)
[3] = biological target: Human BCL-XL removing the C-terminal 22 residues, C-terminal 6×His-tag (human) (UniProt Q07817)
Sequence of UniProt Q07817 (Q07817 1-211): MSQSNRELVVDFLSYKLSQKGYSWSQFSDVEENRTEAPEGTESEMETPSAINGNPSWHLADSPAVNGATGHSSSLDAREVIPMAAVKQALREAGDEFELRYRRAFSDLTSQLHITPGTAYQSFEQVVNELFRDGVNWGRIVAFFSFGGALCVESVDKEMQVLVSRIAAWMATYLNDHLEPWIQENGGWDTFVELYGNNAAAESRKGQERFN

Substance	EC50 [1] [nM]	Ki [2] [nM]	Ki [3] [nM]
Human BCL-2 removing the C-terminal 32 residues, C-terminal 6×His-tag (from UniProt P10415 1-207) (domain or fragment)	30	–	–
wild-type HRK-BH3 peptide (HRK-WT)	–	36	1.8
